# Experiment: melting temperature; melt of duplexes
# Settings: sodium 0.0675 M; strand 1 µM
row,Substance,Tm
1,CGACGTGCCAGATGTGCTG+CAGCACATCTAGCACGTCG ((((((((.((((((((((+)))))))))).)))))))),56.8 °C
2,CGACGTGCAGTATGTGCTG+CAGCACATGCAGCACGTCG ((((((((.(.((((((((+)))))))).).)))))))),54.7 °C
3,CGACGTGCCCCATGTGCTG+CAGCACATAAGGCACGTCG (((((((((..((((((((+))))))))..))))))))),52.7 °C
4,CGACGTGCAAGATGTGCTG+CAGCACATGTTGCACGTCG ((((((((((.((((((((+)))))))).)))))))))),57.8 °C
5,CGACGTGCTCCATGTGCTG+CAGCACATGCAGCACGTCG (((((((((.(((((((((+))))))))).))))))))),55.3 °C
6,CGACGTGCTCGATGTGCTG+CAGCACATTCGGCACGTCG ((((((((...((((((((+))))))))...)))))))),52.3 °C
7,CGACGTGCTTTATGTGCTG+CAGCACATGAGGCACGTCG ((((((((.(.((((((((+)))))))).).)))))))),52.8 °C
8,CGACGTGCGGGATGTGCTG+CAGCACATCCTGCACGTCG ((((((((.((((((((((+)))))))))).)))))))),62.6 °C
9,CGACGTGCCTAATGTGCTG+CAGCACATCATGCACGTCG ((((((((.(.((((((((+)))))))).).)))))))),48.5 °C
10,CGACGTGCCCCATGTGCTG+CAGCACATAGCGCACGTCG ((((((((.(.((((((((+)))))))).).)))))))),47.3 °C
11,CGACGTGCAGAATGTGCTG+CAGCACATTGTGCACGTCG (((((((((.(((((((((+))))))))).))))))))),55.8 °C
12,CGACGTGCTATATGTGCTG+CAGCACATCGCGCACGTCG ((((((((...((((((((+))))))))...)))))))),46.6 °C
13,CGACGTGCTCAATGTGCTG+CAGCACATGACGCACGTCG ((((((((...((((((((+))))))))...)))))))),48.7 °C
14,CGACGTGCTCCATGTGCTG+CAGCACATATTGCACGTCG ((((((((...((((((((+))))))))...)))))))),47.9 °C
15,CGACGTGCGCGATGTGCTG+CAGCACATTTGGCACGTCG ((((((((...((((((((+))))))))...)))))))),49.7 °C
16,CGACGTGCCTGATGTGCTG+CAGCACATGATGCACGTCG ((((((((.(.((((((((+)))))))).).)))))))),49.4 °C
17,CGACGTGCTGTATGTGCTG+CAGCACATAGTGCACGTCG ((((((((..(((((((((+)))))))))..)))))))),48 °C
18,CGACGTGCATAATGTGCTG+CAGCACATTACGCACGTCG ((((((((.((((((((((+)))))))))).)))))))),54.4 °C
19,CGACGTGCAACATGTGCTG+CAGCACATAGAGCACGTCG ((((((((...((((((((+))))))))...)))))))),48.9 °C
20,CGACGTGCTGAATGTGCTG+CAGCACATCTTGCACGTCG ((((((((...((((((((+))))))))...)))))))),50.5 °C
21,CGACGTGCAGAATGTGCTG+CAGCACATTCGGCACGTCG ((((((((.((((((((((+)))))))))).)))))))),59.9 °C
22,CGACGTGCTTGATGTGCTG+CAGCACATTTGGCACGTCG ((((((((...((((((((+))))))))...)))))))),50.8 °C
23,CGACGTGCTGCATGTGCTG+CAGCACATGTTGCACGTCG ((((((((..(((((((((+)))))))))..)))))))),56.4 °C
24,CGACGTGCAACATGTGCTG+CAGCACATGTTGCACGTCG (((((((((((((((((((+))))))))))))))))))),64.5 °C

row,Substance,Tm
1,CGACGTGCCCTATGTGCTG+CAGCACATACAGCACGTCG ((((((((..(((((((((+)))))))))..)))))))),48.8 °C
2,CGACGTGCAAAATGTGCTG+CAGCACATCGCGCACGTCG ((((((((...((((((((+))))))))...)))))))),48.9 °C
3,CGACGTGCCTGATGTGCTG+CAGCACATCGTGCACGTCG ((((((((..(((((((((+)))))))))..)))))))),51.4 °C
4,CGACGTGCCACATGTGCTG+CAGCACATAAAGCACGTCG ((((((((...((((((((+))))))))...)))))))),49.1 °C
5,CGACGTGCTACATGTGCTG+CAGCACATCTTGCACGTCG ((((((((.(.((((((((+)))))))).).)))))))),49.3 °C
6,CGACGTGCTACATGTGCTG+CAGCACATCGTGCACGTCG ((((((((...((((((((+))))))))...)))))))),46.6 °C
7,CGACGTGCAGTATGTGCTG+CAGCACATCGAGCACGTCG ((((((((...((((((((+))))))))...)))))))),50.1 °C
8,CGACGTGCTTCATGTGCTG+CAGCACATGGAGCACGTCG (((((((((.(((((((((+))))))))).))))))))),60 °C
9,CGACGTGCACCATGTGCTG+CAGCACATGGTGCACGTCG (((((((((((((((((((+))))))))))))))))))),65.2 °C
10,CGACGTGCTGTATGTGCTG+CAGCACATTTAGCACGTCG (((((((((..((((((((+))))))))..))))))))),51.5 °C
11,CGACGTGCCATATGTGCTG+CAGCACATCAAGCACGTCG ((((((((...((((((((+))))))))...)))))))),48.6 °C
12,CGACGTGCCCCATGTGCTG+CAGCACATTTTGCACGTCG ((((((((...((((((((+))))))))...)))))))),46.6 °C
13,CGACGTGCTCGATGTGCTG+CAGCACATAAAGCACGTCG (((((((((..((((((((+))))))))..))))))))),52.7 °C
14,CGACGTGCGACATGTGCTG+CAGCACATCACGCACGTCG (((((((((..((((((((+))))))))..))))))))),52.7 °C
15,CGACGTGCGGGATGTGCTG+CAGCACATTCAGCACGTCG ((((((((.(.((((((((+)))))))).).)))))))),56.4 °C
16,CGACGTGCAGGATGTGCTG+CAGCACATAGAGCACGTCG ((((((((...((((((((+))))))))...)))))))),49.4 °C
17,CGACGTGCGAAATGTGCTG+CAGCACATGGAGCACGTCG ((((((((...((((((((+))))))))...)))))))),60.7 °C
18,CGACGTGCAGTATGTGCTG+CAGCACATAATGCACGTCG (((((((((.(((((((((+))))))))).))))))))),57 °C
19,CGACGTGCAATATGTGCTG+CAGCACATCATGCACGTCG (((((((((..((((((((+))))))))..))))))))),50.3 °C
20,CGACGTGCTACATGTGCTG+CAGCACATCCCGCACGTCG ((((((((...((((((((+))))))))...)))))))),47.4 °C
21,CGACGTGCTGGATGTGCTG+CAGCACATAAAGCACGTCG (((((((((..((((((((+))))))))..))))))))),55.3 °C
22,CGACGTGCCGAATGTGCTG+CAGCACATAGTGCACGTCG ((((((((...((((((((+))))))))...)))))))),45.9 °C
23,CGACGTGCCAAATGTGCTG+CAGCACATGGTGCACGTCG ((((((((...((((((((+))))))))...)))))))),48.9 °C
24,CGACGTGCCCCATGTGCTG+CAGCACATATTGCACGTCG ((((((((...((((((((+))))))))...)))))))),46.1 °C

row,Substance,Tm
1,CGACGTGCCATATGTGCTG+CAGCACATTCCGCACGTCG ((((((((...((((((((+))))))))...)))))))),48.1 °C
2,CGACGTGCAGGATGTGCTG+CAGCACATGTGGCACGTCG ((((((((...((((((((+))))))))...)))))))),50.9 °C
3,CGACGTGCGATATGTGCTG+CAGCACATGGGGCACGTCG ((((((((...((((((((+))))))))...)))))))),51.3 °C
4,CGACGTGCACTATGTGCTG+CAGCACATCTAGCACGTCG ((((((((...((((((((+))))))))...)))))))),42.4 °C
5,CGACGTGCAGAATGTGCTG+CAGCACATACAGCACGTCG ((((((((.(.((((((((+)))))))).).)))))))),52 °C
6,CGACGTGCAAAATGTGCTG+CAGCACATAAAGCACGTCG ((((((((...((((((((+))))))))...)))))))),50.8 °C
7,CGACGTGCATAATGTGCTG+CAGCACATGCTGCACGTCG (((((((((..((((((((+))))))))..))))))))),50 °C
8,CGACGTGCTGTATGTGCTG+CAGCACATGATGCACGTCG ((((((((...((((((((+))))))))...)))))))),51.3 °C
9,CGACGTGCATCATGTGCTG+CAGCACATGAGGCACGTCG ((((((((.((((((((((+)))))))))).)))))))),60.8 °C
10,CGACGTGCGTCATGTGCTG+CAGCACATACAGCACGTCG ((((((((...((((((((+))))))))...)))))))),53 °C
11,CGACGTGCCTTATGTGCTG+CAGCACATCTAGCACGTCG ((((((((...((((((((+))))))))...)))))))),48.1 °C
12,CGACGTGCGGTATGTGCTG+CAGCACATCGAGCACGTCG ((((((((...((((((((+))))))))...)))))))),54 °C
13,CGACGTGCCATATGTGCTG+CAGCACATGTAGCACGTCG ((((((((.(.((((((((+)))))))).).)))))))),51.3 °C
14,CGACGTGCCTTATGTGCTG+CAGCACATTAAGCACGTCG ((((((((.(.((((((((+)))))))).).)))))))),49.8 °C
15,CGACGTGCTCCATGTGCTG+CAGCACATTTGGCACGTCG ((((((((...((((((((+))))))))...)))))))),48.3 °C
16,CGACGTGCCTAATGTGCTG+CAGCACATTCTGCACGTCG ((((((((..(((((((((+)))))))))..)))))))),51 °C
17,CGACGTGCCCGATGTGCTG+CAGCACATAATGCACGTCG ((((((((...((((((((+))))))))...)))))))),48.1 °C
18,CGACGTGCTCAATGTGCTG+CAGCACATGGCGCACGTCG ((((((((.(.((((((((+)))))))).).)))))))),51.8 °C
19,CGACGTGCTGCATGTGCTG+CAGCACATAGCGCACGTCG ((((((((...((((((((+))))))))...)))))))),54.2 °C
20,CGACGTGCAATATGTGCTG+CAGCACATCGAGCACGTCG ((((((((...((((((((+))))))))...)))))))),48.2 °C
21,CGACGTGCCTGATGTGCTG+CAGCACATACAGCACGTCG ((((((((...((((((((+))))))))...)))))))),50.8 °C
22,CGACGTGCTCTATGTGCTG+CAGCACATAGAGCACGTCG (((((((((((((((((((+))))))))))))))))))),63 °C
23,CGACGTGCCGGATGTGCTG+CAGCACATAGAGCACGTCG ((((((((...((((((((+))))))))...)))))))),50.2 °C
24,CGACGTGCCTTATGTGCTG+CAGCACATGATGCACGTCG ((((((((.(.((((((((+)))))))).).)))))))),50.1 °C
